Drawing on publication doi:10.1101/2021.04.06.21255004, “Hemoglobin Interacts with Endothelial Nitric Oxide Synthase to Regulate Vasodilation in Human Resistance Arteries” (medRxiv, 2021), this text covers Kd for 1 molecule.

In this assay the target is T1, purified human alpha globin (human, UniProt P69905 1-142, biotinylated using EZ-Link NHS-PEG4 Biotinylation Kit).
T1 construct: hemoglobin subunit alpha, human; called full-length alpha globin in the discussion; Immobilised through biotin on streptavidin biosensors; also called full-length alpha globin; source: purified
T1 sequence (P69905 whole entry): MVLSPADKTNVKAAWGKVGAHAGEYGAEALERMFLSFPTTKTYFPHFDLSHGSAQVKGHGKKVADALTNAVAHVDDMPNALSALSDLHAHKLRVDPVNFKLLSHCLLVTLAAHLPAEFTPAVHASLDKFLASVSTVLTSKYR
Kind of assay: BLI; Octet RED96; biotinylated alpha globin immobilised on streptavidin biosensors; analyte in solution, 120 s association, 120 s dissociation in assay buffer. The following applies: both partners purified.

B1: alpha hemoglobin stabilizing protein (natural protein, UniProt Q9NZD4 1-102, looked up)
chain: MALLKANKDLISAGLKEFSVLLNQQVFNDPLVSEEDMVTVVEDWMNFYINYYRQQVTGEPQERDKALQELRQELNTLANPFLAKYRDFLKSHELPSHPPPSS
notes: alpha hemoglobin stabilizing protein; also called AHSP
Take B1: the dissociation constant Kd was 109 nM.
